{
  "source": "paper PMC5131357",
  "about": "“Biochemical and Structural Analysis of a Novel Esterase from Caulobacter crescentus related to Penicillin-Binding Protein (PBP)” (Scientific Reports, 2016)",
  "assay_in_all_cases": "purified protein",
  "key": {"[1]": {"test_system": "O=C(Cc1cccs1)N[C@@H]1C(=O)N2C(C(=O)O)=C(/C=C/c3ccc([N+](=O)[O-])cc3[N+](=O)[O-])CS[C@H]12", "settings": "20 mM Tris-HCl pH 8.0, RT, 15 μM enzyme"}, "[2]": {"test_system": "CCCCCCCC(=O)Oc1ccc([N+](=O)[O-])cc1", "settings": "20 mM Tris-HCl pH 8.0, RT, 40 nM enzyme"}, "[3]": {"test_system": "CC(=O)Oc1ccc([N+](=O)[O-])cc1", "settings": "20 mM Tris-HCl pH 8.0, RT, 40 nM enzyme"}},
  "data": [
    {"substance": "CcEstA (Caulobacter vibrioides NA1000)", "values": [
      {"measurement": "Km", "setting": "[1]", "result": 1348, "unit": "µM"},
      {"measurement": "kcat", "setting": "[1]", "result": 0.00807, "unit": "s⁻¹"},
      {"measurement": "Km", "setting": "[2]", "result": "43.4 ± 3.15", "unit": "µM"},
      {"measurement": "kcat", "setting": "[2]", "result": "4.03 ± 0.29", "unit": "s⁻¹"},
      {"measurement": "Km", "setting": "[3]", "result": "51.9 ± 2.44", "unit": "µM"},
      {"measurement": "kcat", "setting": "[3]", "result": "15.2 ± 2.19", "unit": "s⁻¹"}
    ]}
  ]
}
